This data set can be described thus: yeast display, Sf9 membrane polyspecificity reagent, FACS + sequencing; frameworks hold sequencing errors. The procedure, abridged:
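Nanobodies from a synthetic yeast display library (Saccharomyces cerevisiae BJ5465), induced 36–48 hours with galactose, were stained 1 hour at 4 °C with 10% biotinylated, detergent-solubilized Sf9 membrane reagent, enriched on streptavidin microbeads, then FACS-sorted. Anti-HA (expression) and streptavidin (reagent binding) fluorescence set low and high (top ~1%) gates. Polyreactivity labels come from the gate of origin. Genes were colony-PCR amplified, MiSeq 2 × 250 sequenced and filtered by CDR length.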
“KVQLVESGGGLVQAGGSLRLSCAASGRTFRTYAMGWYRQAPGKERELVAANSSGGSTNYADSVKGRFTISRDNAKNTVYLQMNSLKPEDTSVYYCATRPTSDFVKRRVYEWLDYWGQGTQVTVSS”: the “polyreactivity (PSR sort gate)” value was “low polyreactivity”.
Next, “QVQLEESGGGLVQAGGSLRLSCAASGSTFLLNAMGWYRQAPGKERELVAAITSSGGTNYADSVKGRFTISRDNAKNTVYLQMNSLKPEDTAVYNCYTRYSPGYQGTEVDYWGQGTQVTVSS”: “low polyreactivity”.
Next, “QVQLVESGGGLVQAGGSLRLSCAASGRTFPVYAMGWYRQAPGKERELVASITGRGGSTYYADSVKGRFTISRDNAKNTVYLQMNSLKPEDTAVYYCARDWYKTYTGYYWGQGTQVTVSS”: “high polyreactivity”; “QVQLVESGGGLVQAGGSLRLSSAASGSIFVNYVMGWYRQAPGKERELVADISSGGSTYYADSVKGRFTISRDNAKNTVYLQMNSLKPEDTAVYYCNAVYPYTYDYWGQGTQVTVSS”: “low polyreactivity”.
Next, “QVQLVESGGGLVQAGGSLRLSCAASVRTFRIYAMGWYRQAPGKERELVAAISWDDGSTYYADSVKGRFTISRDNAKNTVYLQMNSLKPEDTAVYYCAAEYYFVNRGAWYDYWGQGTQVTVSS”: “high polyreactivity”.
Regarding “QVQLQESGGGLVQAGGSLRLSCAASGTIFTARFMGWYRQAPGKERELVATITDGGNTNHADSVKGRFTISRDNAKNTVYLQMNSLKPEDAAVYFCAAGEVDNDTLLYWGQGSQVTVSS”, the “polyreactivity (PSR sort gate)” value is given as “low polyreactivity”.
The result for “QVQLVESAGGLVQAGARLRLSCAASGFTFQYYALGWYRQAPGKERELVATISTSGGNTYYADSVKGRFTITRDNAKNTVYLQMNSLKPEDTAVYYCAARRYRASSRGYGYWGQGTQVTVSS” reads “high polyreactivity”.
Next, “QVQLVESGGGLVQAGGSLRLSCAASGRIFGGNTMGWYRQAPGKEREFVAAITQSGTRTYYADSVKGRFTISRDNAKNTVYLQMNSLKPEDTAVYYCAATWRQHPGSMGYWGQGTQVTVSS”: “high polyreactivity”; “QVQLVESGGGLVQAGGSLRLSCAASGRTFTRYTMGWYRQAPGKERELVAAISSGGSTTYADSVKGRFTISRDNAKNTVYLQMNSLKPEDTAVYYCAAGLVYRGYRRDYWGQGTQVTVSS”: “low polyreactivity”.
Turning to “QVQLVESGGGLVQAGGSLRLSCAASGSTFDSYAMGWYRQAPGKERELVAAITTTGGSTFYADSVKGRFTISRDNAKNTVYLQMNSLKPEDTAVYYCAADDGWQEFEYWGQGTQVTVSS”, the “polyreactivity (PSR sort gate)” value was “low polyreactivity”.
As to “QVQLVESGGGLVQAGGSLRLSCAASGRIFRYYAMGWYRQAPGKERELVASIARRGGSTNYADSVKGRFTISRDNAKNTVYVQMNSLKPEDTAVYYINAENWSPRGLYNYWGQGTQVTLSS”, the “polyreactivity (PSR sort gate)” value is on record as “high polyreactivity”.
The result for “QVQLVESGGGLVQAGGSLRLSCAASGITFFHYAMGWYRQAPGKERELVATISWRAGSTYADSVKGRFTISRDNAKNTVYLQMNSLKPEDTAVYYCNAVWTYHSGSGGYLFDYWGQGTQVTVSS” reads “low polyreactivity”; that for “QVQLVESVGGLVQAGVSLRLRCAASGFIFWYYAMGWYRQATGKDRELVASISARDGSTYYADSVKGRFTISRYNAKNTVYLQMNSLKPEDTAVYYCNAVQRYPKYRMDYCGQGTQVTVSS”, “low polyreactivity”.
As to “QVQLVESGGGLVQAGGSLRLSCAASGSIFWPYAMGWYRQAPGKERELVAGISRSGGITYYADSVKGRFTISRDNAKNTVYLQMNSLKPEDTAVYYCARYQEWRQEYDYWGQGTQVTVSS”, the “polyreactivity (PSR sort gate)” value is “high polyreactivity”.
The result for “QVQLVESGGGLVQAGGSLRLSCAASGSIFNWNTMGWYRQAPGKERELVAAITYDGGTTYYADSVKGRFTISRDNAKNTVYLQMNSLKPEDTAVYYCAAEFLYKYGRYDYWGQGTQVTVSS” reads “high polyreactivity”.
Regarding “QVQLVESGGGLVQAGGSLRLSCAASGSTFPVYAMGWYRQAPGKERELVASISSGADTNYADSVKGRFTISRDNAKNTVYLQMNSLKPEDTAVYYCAATVPLRTIRPRSYGYWGQGTQVTVSS”, the “polyreactivity (PSR sort gate)” value is “low polyreactivity”.
Next, “QVQLVDSGGGLVQAGGSLRLSCAASGSTFGSYAMGWYRQAPGKERELVAAISWNGGRTYYADSVKGRFTISRDNAKNTVYLQMNSLKPEDTAVYYCAKVVKYQSGGGLDYWGQGTQVTVSS”: “high polyreactivity”.
The result for “QVQLVESGGGLVQAGGSLRLSCAASGRISWVYPMGWYRKAPGKERELVAAITFSGGSTYYADSVKGRFTISRDNAKNSVYLQMNSLKPEDTAVYYCAADVLAIYSHRYYRYDSWGQGTQVTVSS” reads “high polyreactivity”.
Regarding “QVQLLESCVGLVHAGGSLRLSCAASGFIFGTNAMGWSRQAPGKEREWVAAINGRGGGTYYADSVKGRFTISRDNAKNTVYLQMNSLKQEDTAVYYCAASRFDYWGQGTQVTVSS”, the “polyreactivity (PSR sort gate)” value was “low polyreactivity”.
For the sequence “QVQVVESGGGLVQAGGSLRLSCAASGSTFTIYAMGWYRQAPGKERELVALITWSGGSTYYADSVKGRFTISRDNAKNTVYLQMNSLKPEDTAVYYCAADYYRPVPGGYYWGQGTQVTVSS”, the “polyreactivity (PSR sort gate)” value is listed as “high polyreactivity”.
As to “QVQLVESGGGLVQAGGSLRLSCAASGSTFIFYSMGCYRQAPGKERELVASITSSSGPTYYADSVKGRFTISRDNAKNTVYLQMNSLKPEDTAVYYCAKRPIRYYHLLRGNYWGQGTQVTVSS”, the “polyreactivity (PSR sort gate)” value was “low polyreactivity”.
The result for “QVQHVESGGGLVQAGGSLRLSCAASGIIFSYNAMGWYRQAPGKERELVAAISSGGRTYYADSVKGRFTISRDNAKNTVYLQMNSLKPEDTAVYYCATTSPHRLYGYYYDYWGQGSQVTVSS” reads “high polyreactivity”; that for “QVQLVESGGGIVQAGGSLRLICAASGFTFWDYAMGWHRQAPGKERELVAAISWSGGSTYYADSVKGRFTISRDNAKNTVYLQMNSLKPEDTAVYYCNAVHYSRYVHPGHSMYYWGQGTQVTVSS”, “low polyreactivity”; that for “QVQLVESGGGLVQAGGSLRLSCAASGRIIRIYTMGWYRQARGKERELVAAITKSGGSTSYADSVKGRFTISRDNAKNTVYLQMNSLKPEDTAVYYCNAKGWTRPPGYDYWGQGTQVTVSS”, “high polyreactivity”.
As to “QVQLVESGGGLVQAGGSLRLRCAASGSTFRNAMGWYRQAPGKERELVAAISYSGGRTYYADSVKGRFTISRDNAKNTVYLQMNSLKPEDTAVYYCASPGVSWSTRSYYYWGQGTQVTVSS”, the “polyreactivity (PSR sort gate)” value was “high polyreactivity”.
Take “QVQLVESGGGLVQAGGSLRLSCAASGITFGRHTMGWYRQAPGKERELVAAIDSGGNTYADSVKGRFTISRDNAKNTVYLQMNSLKPEDTAVYYCAVDGGEFSSYGYWGQGTQVTVSS”: the “polyreactivity (PSR sort gate)” value is recorded as “low polyreactivity”.
For the sequence “QVQLQESGGGLVQAGGSLRLSCAASGYISHADEMGWYRQAPGKEHELVASISNGGSTNYADSVKARCTISRDNAKTTVYLQMNSLKSEATAVYFCAAWTGQVDIHYYWGQGTQVTVSS”, the “polyreactivity (PSR sort gate)” value was “low polyreactivity”.
The result for “QVQLVESGGGLVQAGGSLRLSCAASGRTFSPYAMGWYRQAPGKERELVAAITSRGASTYYADSVKGRFTISRDNAKNTVYLQINSLKPEDTAVYYCNSGRTYRRLGDYWGQGTQVTVSS” reads “high polyreactivity”.
As to “QVQLVESGRGLVQAGGSLRLSCAASGFTFVWYAMGWYIPAPGKERELVAAISRRGTRTYYADSVKGRFTISRDNAKNTVYLQMNSLKPEDTAVYYCASESILGYDYWGQSTQVTVSS”, the “polyreactivity (PSR sort gate)” value is “high polyreactivity”.
Next, “QVQLVESGGGLVQAGGSLRLSCAASGSTFPPYAMGWYRQAPGKERDLVADITRRGASTYYADSVKGRFTISRDNAKNTVYLQMNSLKPEDTAVYYCAARYYYQYYSGFDYWGQGTQVTVSS”: “high polyreactivity”; “QVQLVESGGGLVQARRSLRLSCAASGFTVKRYAMGWYRPEPGKEREFVAAITRGGGSTYYADYVKGRFTISRDNAKNTVYLQMNSLKPEDTAVYYCNARSRSYVPYYYWGQGTQVTVSS”: “high polyreactivity”; “QVQLVESGGGLVQAGGSLRLSCAASGSIFFEYAMGWYRQAAGKERELVAAIDVGGGGTDYADSVKGRFTISRDNAKNTVYLQMNSLKPEDTAVYYCAAQDYYYFGIGASYDYWGQGTQVTVSS”: “low polyreactivity”.
Next, “QVQLVESGGGLVQAGGSLRLSCAASGSIFVPYARGWYRQAPGKERELVAAISNGDSTYYADSVKGRFTISRDNAKNTVYLQMNSLKPEDTAVYYCAADAVKASVSYIVPYAAYDYWGQGTQVTVSS”: “low polyreactivity”; “QVQLVESGGGLVQAGGSLRLSCAASGSIFTPYAMGWYRQAPGKERELVAAITQTGGITYYADSVKGRFTISRDNAKNTVYLQMNSLKPEDTAVYYCAADDYNPFSYSYGLEYWGQGTQVTVSS”: “low polyreactivity”; “QVQLVESGGGLVQAGGSLRLSCAASGFTFVSYAMGWYRQAPGKERELVASITWTGGSTYYADSVKGRFTISRDYAKNTVYLQMNSLKPEDTAVYYCAAQQFYSGILGRYYWGQGTQVTVSS”: “low polyreactivity”.
Next, “QVQLVESGGGLVQAGGSLRLSCAASGSIFKRYAMGWYRQAPGKERELVARISRRGGTYYADSVKGRFTISRDNAKNTVYLQMNSLKPEDTAVYYCNANVIFADNNDRDYWGQGTQVTVSS”: “low polyreactivity”; “QVQLVESGGGLVQAGGSLRLSCAASGITFPDNAMGWSRQAPGKERELVAAITYSGGSTYYADSVKGRFTISRDNAKNTVYLQMNSLKPEDTAVYYCAADWYWSSSYSDWEDYWGQGTQVTVSS”: “low polyreactivity”; “QVQPVESGGGLDQAGGSLRLSCAASGRILWSYAMGWYRQAPGKERELVAAIRTSGGSTYYADSVKGRFTISRDNAKNTVYLQMNSLKPEDTAVYYCAADRTLFSTVDYWGQGTQVTVSS”: “low polyreactivity”.
In the case of “QVQIVESGGGLVQAGGSLRLSCAASGSTFVDYDMGWYRQAPGKERELVAGITTGGSTNYADSVKGRFTISRDNAKNTVYLQMNRLKPEDTAVYYCAATVYGIYYYGRDRYDYWGQATQVTVSS”, the “polyreactivity (PSR sort gate)” value is recorded as “low polyreactivity”.
The result for “QVQLVESGGGLVQAGGSLRLSCAASGFIFDAYAMGWYRQAPGKERELVAAITRGNTYYADSVKGRFTISRDNAKNTVYLQMNSLKPEDTALYYCNADYNYANYPHDYWGQVTQVTVSS” reads “low polyreactivity”; that for “QVQVVESWGGLVQEAGSLRLSCAASGRTFAHYNMGSYRQAPGKERELVARIDWSCGNTYYADSVKGRFTISRDNAKITVFLQMNRLKPQDTAVYYCAAVPAFYNAWGEDYEYWGQGTHVTVSS”, “low polyreactivity”.

For the origin of these results see the nanobody polyreactivity screen of Harvey et al. (2022).
